Experimental data: US20250325718A1, “IMMUNOCONJUGATES COMPRISING KALLIKREIN RELATED PEPTIDASE 2 ANTIGEN BINDING DOMAINS AND THEIR USES” (Janssen Biotech, Inc., priority 2021, published 2025)
Substitutions are numbered along the chain they refer to.

B1: KL2B53 (Fab): anti-hK2 antibody; VH SEQ ID NO: 164, VL SEQ ID NO: 165 (antibody, V domains shown)
VH: EVQLVESGGGVVQPGRSLRLSCVASGFTFSSYDIHWVRQAPGKGLEWVAIISYDGSKKDYTDSVKGRFTISRDNSKNTLYLQMDSLRVEDSAVYSCARESGWSHYYYYGMDVWGQGTMVTVSS
VL: DIVMTQSPSSLSASVGDRVTITCRASQDISNYLAWYQQKPGKVPKFLIYAASTLHSGVPSRFSGSGSGTDFTLTISSLQPEDVATYYCQKYNSAPYTFGQGTRLEIK
B2: KL2B359 (scFv-LH-Fc): anti-hK2 clone from the re-humanization campaign of 11B6; VH SEQ ID NO: 139, VL SEQ ID NO: 140 (protein)
scFv: EIVLTQSPATLSLSPGERATLSCRASESVEYFGTSLMHWYQQKPGQPPRLLIYAASNVESGIPARFSGSGSGTDFTLTISSVEPEDFAVYFCQQTRKVPYTFGGGTKVEIKGGSEGKSSGSGSESKSTGGSQVQLQESGPGLVKPSQTLSLTCTVSGNSITSDYAWNWIRQFPGKRLEWIGYISYSGSTTYNPSLKSRVTISRDTSKNQFSLKLSSVTAADTAVYYCATGYYYGSGFWGQGTLVTVSS
modifications: left off: a dimerising Fc or GST; small tags and cut ends
B3: KL2B242 (Fab): anti-hK2 antibody; VH SEQ ID NO: 166, VL SEQ ID NO: 167 (antibody, V domains shown)
VH: QVQLQESGPGLVKPSETLSLTCTVSGGSISSYYWSWLRQPAGSGLEWIGRLYVSGFTNYNPSLKSRVTLSLDPSRNQLSLKLSSVTAADTAVYYCAGDSGNYWGWFDPWGQGTLVTVSS
VL: SYELTQPPSVSVSPGETASITCSGDQLGENYACWYQQKPGQSPVLVIYQDSKRPSGIPERFSGSNSGNTATLTISGTQALDEADYYCQAWDNSIVVFGGGTKLTVL
B4: KL2B413 (scFv-LH-Fc): anti-hK2 antibody from Ablexis mice immunization; VH SEQ ID NO: 137, VL SEQ ID NO: 138 (protein)
chain 1: EVQLVESGGGLVQPGGSLRLSCAASGFTFSSYWMTWVRQAPGKGLEWVANIKQDGSERYYVDSVKGRFTISRDNAKNSLYLQMNSLRAEDTAVYYCARDQNYDILTGHYGMDVWGQGTTVTVSS
chain 2: EIVLTQSPSFLSASVGDRVTITCRASQGISSYLSWYQQKPGKAPKLLIYATSTLQSGVPSRFSGSGSGTEFTLTISSLQPEDFATYYCQQLNSYPRTFGQGTKVEIK
B5: KL2B997 SORT: KL2B997 site-specific ADC prepared via the sortase tag with Gly3-vcMMAF (conjugate)
heavy: QVQLQESGPGLVKPSETLSLTCTVSGGSISSYYWSWIRQPPGKGLEWIGYIYYSGSTNYNPSLKSRVTISVDTSKNQFSLKLSSVTAADTAVYYCAGTTIFGVVTPNFYYGMDVWGQGTTVTVSS
light: B4 chain 2 with E1D, V3Q, L4M, S34A, L46F, T51A, R96L, Q100G
modifications: left off: a dimerising Fc or GST; large carriers
notes: KL2B997 site-specific ADC prepared via the sortase tag with Gly3-vcMMAF
B6: KL2B467 (Fab): anti-hK2 antibody from OmniRat immunization; VH SEQ ID NO: 168, VL SEQ ID NO: 169 (antibody, V domains shown)
VH: QVQLVESGGGVVQPGRSLRLSCAASGFTFSYYGMHWVRQAPGKGLEWVAFISYDGSNKYYADSVKGRFTISRDNSKNTLYLQMNSLRAEDTAVYYCAHLPYSGSYWAFDYWGQGTQVTVSS
VL: QSVLTQPPSVSVAPGQTASITCGGDNIGSKSVHWYQQKPGQAPVLVVYDNSDRPSGIPERFSGSNSGTTATLTISRVEAGDEADYYCQVWDSSSDHPVVFGGGTKVTV

Assays:
[1] = Thermal stability by Differential Scanning Fluorimetry (NanoDSF); type: physicochemical; details: 0.5 mg/mL in Phosphate Buffered Saline pH 7.4, 20-95 ° C. at 1.0 ° C./minute
Method: Thermal stability was determined by Differential Scanning Fluorimetry (NanoDSF) using an automated Prometheus instrument. NanoDSF was used to measure Tm of molecules at a concentration of 0.5 mg/mL in Phosphate Buffered Saline, pH 7.4. Measurements were made by loading samples into 24 well capillary from a 384 well sample plate. Duplicate runs were performed for each sample. The thermal scans span from 20° C., to 95° C. at a rate of 1.0° C./minute. Intrinsic tryptophan and tyrosine fluorescence were monitored at the emission wavelengths of 330 nm and 350 nm, and the F350/F330 nm ratio were plotted against temperature to generate unfolding curves.

[2] = target: soluble hK2 (Homo sapiens, UniProt P20151); assay: Affinity of hK2 antibodies for soluble hK2 by surface plasmon resonance (SPR); type: binding; details: antibody captured on anti-Fc chip, soluble hK2 injected, 1:1 Langmuir fit, KD = koff/kon
Method: Affinity of selected hK2 antibodies for soluble hK2 was measured by surface plasmon resonance (SPR). SPR is a label-free technique to study the strength of an interaction between two binding partners by measuring the change in mass upon complex formation and dissociation. Antibodies were captured on a sensor chip coated with an anti-Fc antibody followed by injection of soluble hK2 at various concentrations and specified association and dissociation times. Post dissociation, the surface was regenerated with an appropriate solution to prepare for the next interaction. Kinetic information (on-rate and off-rate constants) were extracted by fitting sensorgrams to the 1:1 Langmuir model. Binding affinity (KD) are reported as the ratio of rate constants (koff/kon).

[3] = system: hK2-positive VCaP cells; assay: Target cell binding by flow cytometry, hK2-positive cells; type: cell-based; details: 4° C. 60 minutes, anti-Human F(ab′)2 secondary detection, live cells
Description: To evaluate target cell binding of the KL2B30 Fab with different conjugation variants, VCaP cells were used as hK2-positive target cells and DU145 cells were used as hK2-negative cells. KL2B30 parental antibody (comprising a heavy chain and light chain of SEQ ID NO: 210 and SEQ ID NO: 221, respectively) and hul1B6 (an anti-hK2 antibody, also referred to herein as h11B6, comprising a heavy chain and light chain of SEQ ID NO: 203 and SEQ ID NO: 215, respectively) were included as positive controls. The h11B6 antibody is described in U.S. Pat. No. 10,100,125, which is incorporated by reference herein. An anti-Human F(ab′)2 fragment specific secondary detection antibody was used for detecting Fab-based binding. Test antibodies were incubated with target cells at 4° C. for 60 minutes and detected by secondary staining. Cell binding was quantified by flow cytometry based on secondary antibody binding signal and gated from on live cells.

soluble hK2, sequence (P20151 25-261): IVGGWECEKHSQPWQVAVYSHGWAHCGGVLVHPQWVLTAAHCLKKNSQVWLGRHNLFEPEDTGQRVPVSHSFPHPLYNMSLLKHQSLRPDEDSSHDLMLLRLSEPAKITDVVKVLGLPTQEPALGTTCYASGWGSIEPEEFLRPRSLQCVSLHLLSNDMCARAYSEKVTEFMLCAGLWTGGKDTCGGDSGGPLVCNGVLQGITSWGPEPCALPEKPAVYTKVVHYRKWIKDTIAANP

| Molecule | Tm (° C.) [1] | also measured |
| --- | --- | --- |
| B1 | >70 °C |  |
| B2 | 67 °C |  |
| B3 | >70 °C |  |
| B4 |  | Kd [2]: 34.3 nM; Kd ([2]; listed as KL2B413 scFv): ~34 nM |
| B5 |  | cell binding to hK2-positive VCaP cells [3]: positive and dose-dependent cell binding |
| B6 | >70 °C |  |
